Measurements reported in article PMC3224728, “Identification of target genes of transcription factor activator protein 2 gamma in breast cancer cells”.

B1: MtR3-36-648/HPSE (dsDNA)
DNA 1: AAAAGTATTCAGGGCCCATGA
DNA 2: TCATGGGCCCTGAATACTTTT
B2: WtR4-28-854/CDH2 (dsDNA)
DNA 1: ATGCGACCTGCAGGCATGCCA
DNA 2: TGGCATGCCTGCAGGTCGCAT
B3: WtR1-15-286/IGSF11 (dsDNA)
DNA 1: TTTGCTGCCTTTGTCCTGTAG
DNA 2: CTACAGGACAAAGGCAGCAAA
B4: WtR3-36-676/HPSE (dsDNA)
DNA 1: AATGTGGCCCTGGTCACTTAG
DNA 2: CTAAGTGACCAGGGCCACATT
B5: WtR3-36-648/HPSE (dsDNA)
DNA 1: AAAAGTGCCCAGAGCCCATGA
DNA 2: TCATGGGCTCTGGGCACTTTT
B6: MtR1-15-286/IGSF11 (dsDNA)
DNA 1: TTTGCTATTTTTATCCTGTAG
DNA 2: CTACAGGATAAAAATAGCAAA
B7: MtR4-28-854/CDH2 (dsDNA)
DNA 1: ATGCGACCCGCAAATATGCCA
DNA 2: TGGCATATTTGCGGGTCGCAT
B8: MtR3-36-676/HPSE (dsDNA)
DNA 1: AATGTGATTCTGATCACTTAG
DNA 2: CTAAGTGATCAGAATCACATT
B9: HMT (dsDNA)
DNA 1: AACGGACCGCCCGCGGCCCGT
DNA 2: ACGGGCCGCGGGCGGTCCGTT

The binders below were run against T1, GST-AP-2γ (UniProt Q92754 1-450) (assay: EMSA; 10 mM HEPES pH 8.0, 60 mM KCl, 4 mM MgCl2, 0.1 mM EDTA, 100 μg/ml BSA, 0.25 mM DTT, 10% glycerol, 37°C 20 min; 5 pmol probe, 50 pmol protein in 15 μl; 6% native PAGE). Settings: protein: recombinant; tags: GST (N-terminal, pGEX-4T-2); chain copies: 2; label: 32P 5' end of forward strand; blunt.
T1 sequence (Q92754 whole entry): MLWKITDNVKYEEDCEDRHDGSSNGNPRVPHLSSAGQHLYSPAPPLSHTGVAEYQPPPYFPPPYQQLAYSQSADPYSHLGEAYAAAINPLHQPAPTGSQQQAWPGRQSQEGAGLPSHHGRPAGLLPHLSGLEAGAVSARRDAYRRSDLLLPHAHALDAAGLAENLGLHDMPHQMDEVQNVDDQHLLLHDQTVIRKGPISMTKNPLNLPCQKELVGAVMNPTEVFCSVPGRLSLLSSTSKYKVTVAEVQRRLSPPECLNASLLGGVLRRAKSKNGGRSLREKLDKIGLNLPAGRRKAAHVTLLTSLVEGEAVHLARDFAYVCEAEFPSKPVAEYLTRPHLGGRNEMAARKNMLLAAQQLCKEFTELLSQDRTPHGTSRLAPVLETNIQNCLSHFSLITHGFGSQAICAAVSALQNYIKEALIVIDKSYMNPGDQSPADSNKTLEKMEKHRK
B1: no binding.
B2: binds.
B3: binds.
B4: no binding.
B5: binds.
B6: no binding.
B7: no binding.
B8: no binding.

These binders were tested against T1, GST-AP-2γ (assay: competition; 10- or 50-fold excess unlabeled vs wild-type HPSE-648, CDH2-854, IGSF11-286 probes; markedly decreased binding; 10 mM HEPES pH 8.0, 60 mM KCl, 4 mM MgCl2, 0.1 mM EDTA, 100 μg/ml BSA, 0.25 mM DTT, 10% glycerol, 37°C 20 min; 5 pmol probe, 50 pmol protein in 15 μl; 6% native PAGE). Settings: protein: recombinant; tags: GST (N-terminal, pGEX-4T-2); chain copies: 2; blunt.
B9: binds.
